Assays:
[1] = PTH storage method: acceleration stability test of the content, form of package and stabilizing agent (Example 6); type: physicochemical
Description: PTH was prepared at 40 mg/mL with water for injection, which was then dispensed to serve as a drug solution. It was further diluted to 20 mg/mL with water for injection before experiment, 20 μL of which was added dropwise to a microneedle base (400 μg/patch), which served as a medicinal unit.
(§1) A medicinal unit sample for screening of a stabilizing agent was fully dried and enclosed in an aluminum packing material, sandwiched between silicon treated liners, with OZO (OZO kagakugiken Co., Ltd.). It was then stored at 25° C., 40° C., 50° C., and 60° C. to perform an acceleration test to conduct a stability test of the content over time (n=3). The content was returned to room temperature, and then extracted with 4 mL of an extraction liquid, followed by measurement by HPLC.
Extraction liquid: a 0.01% benzalkonium chloride solution or 2% TMTDAB, 1% sodium chloride, and 10 mM acetic acid buffer
Detector: an ultraviolet absorptiometer (measurement wavelength: 220 nm)
Column temperature: 25° C.

[2] = PTH/pullulan coating liquid: solubility evaluation and amount of PTH coated on microneedles (Example 9); type: physicochemical; conditions: 30% or 40% PTH solution with small amount of surfactant (Tween 20)
Description: In order to optimize a ratio between PTH (1-34) (the product of Sichuan Unibiochem Co., Ltd.) and a coating carrier, which is a water-soluble high molecular weight polymer, a study was conducted using PTH and a coating carrier (pullulan). […] The concentration of pullulan was adjusted based on the viscosity of the solution at the time of dissolving, and the range of the concentration of pullulan was set to 0 to 30% (w/w). It is to be noted that, as the pullulan, one recited in Japanese Pharmacopeia (the product of Hayashibara Biochemical Labs., Inc.) was used. Further, in order to increase the adhesiveness to the needles, a study was also conducted for the case in which a surfactant (Tween20, 0.1%) was added as shown in Table 7.
Evaluation of solubility of PTH was performed after adjusting each solution, and a coating liquid capable of adjusting a uniform solution was subjected to an operation for coating of microneedles made of a polylactic acid. Following the aforementioned method as a coating method, coating was performed only on the tip part of the needles with the use of a metal mask (only the needle part was coated using a metal mask having a diameter of the aperture: 220 μm and thickness: 100 μm).

[3] = Study on the addition amount of sucrose to PTH, stability of content (Example 7); type: physicochemical
Description: as §1
Other than this, the study was conducted in the same manner as the aforementioned Examples.

[4] = In vitro human skin penetration test by microneedles (parathyroid hormone); type: in vitro ADME; conditions: microneedles height 500 μm compared with 300 μm; 40 μg hPTH coated; attachment six hours
From the text: (§2) Two types of microneedles made of a polylactic acid that differ in the length of the needle part (h: 300 μm and 500 μm) were used. The shape of either of these two types of microneedles was square pyramid, and the density of the microneedle was 400 needles/cm^2. Also, the area of either one of microneedle devices was 1 cm^2.
A coating liquid prepared according to the below-described technique (30% human parathyroid hormone hPTH (1-34) (the product of Sichuan Unibiochem Co., Ltd.), 7.5% pullulan, and 0.1% Tween 20) was coated on a microneedle device similarly to Example 1, and after piercing excised human skin with this microneedle device by finger pressing (2 kg/patch), the device and the skin were placed on an acrylic cell for sampling over time. As a receptor layer, physiological saline containing 0.01% benzalkonium chloride was used, and 1 mL of a receptor liquid collected per sampling time was measured by a gamma counter to calculate a PTH concentration. It is to be noted that a period of attachment of the microneedle device was set at six hours. The results of the sampling are as shown in the graph in FIG. 5.
(2) After coating microneedles with the coating solution prepared in (1), radiation of each pharmaceutical preparation was counted using a NaI counter to estimate the content of PTH coated on the needle part. […]

[5] = Hairless rat in vivo absorption test by microneedles (parathyroid hormone)
From the text: as §2
Firstly, the abdomen of a hairless rat was pierced with a microneedle device in which tips of the needles were coated with a similar coating liquid to Example 2 (30% human parathyroid hormone hPTH (1-34) (the product of Sichuan Unibiochem Co., Ltd.), 7.5% pullulan, and 0.1% Tween 20) by a similar technique to Example 1 by hand pushing, and the microneedle device was covered with a foam tape (the product of 3M Company) and left attached for six hours. Then, blood was collected over time (amount of blood collected 200 μL/times) to measure the serum hPTH concentration with a Rat PTH IRMA kit (the product of Immutopics International). Also, in a subcutaneous administration group, 0.2 mg/mL hPTH in physiological saline was prepared, 40 μL of which was subcutaneously administered to the back of a hairless rat, and the PTH concentration was similarly measured.

[6] = Study on drying time of a sucrose additive to PTH, stability of content (Example 8); type: physicochemical; conditions: 60° C.
Description: as §1
Using this solution, a drug solution unit was produced, and preservation qualities resulting from various drying times were examined under a nitrogen stream.

In the case of human parathyroid hormone hPTH (1-34), the “residual ratio (%) relative to the initial value” ([1]; 40° C., 1W) is reported as 100.22 ± 0.53%, the “residual ratio (%) relative to the initial value” ([1]; 40° C., 2W) is reported as 97.64 ± 0.72% and the “residual ratio (%) relative to the initial value” ([1]; 40° C., 4W) is reported as 97.02 ± 0.65%. For the same substance, the “residual ratio (%) relative to the initial value” ([1]; 50° C., 1W) was 94.65 ± 1.55%, the “residual ratio (%) relative to the initial value” ([1]; 50° C., 2W) was 94.10 ± 2.25% and the “residual ratio (%) relative to the initial value” ([1]; 50° C., 4W) was 84.26 ± 1.19%. For the same substance, the “residual ratio (%) relative to the initial value” ([1]; 60° C., 1W) was 89.50 ± 1.11%, the “residual ratio (%) relative to the initial value” ([1]; 60° C., 2W) was 88.22 ± 0.82% and the “residual ratio (%) relative to the initial value” ([1]; 60° C., 4W) was 71.80 ± 1.94%. For the same substance, the “amount of PTH attached by single coating operation” value [2] was at least 20 µg, the “residual ratio (%) relative to the initial value” ([3]; 40° C., 1W) was 83.26 ± 0.57% and the “residual ratio (%) relative to the initial value” ([3]; 40° C., 4W) was 92.82 ± 0.74%. The “residual ratio (%) relative to the initial value” ([3]; 50° C., 4W) was 80.83 ± 4.57%, the “residual ratio (%) relative to the initial value” ([3]; 60° C., 4W) was 76.55 ± 3.95% and the skin penetration property [4] was “efficient drug delivery is made possible”. The “initial rise in the blood concentration, reaching maximum blood concentration” value ([5]; microneedle device vs subcutaneous administration) was “more rapidly reached than subcutaneous administration”, the “amount of absorption (serum hPTH)” value ([5]; microneedle length 300 and 500 μm, attached six hours) was “increases in the amount of absorption dependent on the length of the microneedles” and the “residual ratio (%) relative to the initial value” ([6]; drying time 15 minutes, 1W) was 85.35 ± 0.64%. The “residual ratio (%) relative to the initial value” ([6]; drying time 15 minutes, 4W) was 75.43 ± 1.69%, the “residual ratio (%) relative to the initial value” ([6]; drying time 30 minutes, 1W) was 85.53 ± 0.49% and the “residual ratio (%) relative to the initial value” ([6]; drying time 30 minutes, 4W) was 73.10 ± 0.36%. The “residual ratio (%) relative to the initial value” ([6]; drying time 1 hour, 1W) was 84.62 ± 0.72%, the “residual ratio (%) relative to the initial value” ([6]; drying time 1 hour, 4W) was 75.56 ± 1.69% and the “residual ratio (%) relative to the initial value” ([6]; drying time 2 hours, 1W) was 86.01 ± 1.07%. The “residual ratio (%) relative to the initial value” ([6]; drying time 2 hours, 4W) was 73.93 ± 1.41%, the “residual ratio (%) relative to the initial value” ([6]; drying time 16 hours, 1W) was 87.08 ± 0.72% and the “residual ratio (%) relative to the initial value” ([6]; drying time 16 hours, 4W) was 72.71 ± 2.01%.

— patent publication US20110288485A1, “MICRONEEDLE DEVICE” (HISAMITSU PHARMACEUTICAL CO., INC., priority 2008, published 2011)
